T1: human amylin receptor (amylin 3(a) receptor: human calcitonin receptor with RAMP-3) (human, UniProt P30988 25-474; O60896 24-148)
T1 construct: whole, on cells; also called hAmylin-R; hAmylinR
T1 sequence (looked up) 1: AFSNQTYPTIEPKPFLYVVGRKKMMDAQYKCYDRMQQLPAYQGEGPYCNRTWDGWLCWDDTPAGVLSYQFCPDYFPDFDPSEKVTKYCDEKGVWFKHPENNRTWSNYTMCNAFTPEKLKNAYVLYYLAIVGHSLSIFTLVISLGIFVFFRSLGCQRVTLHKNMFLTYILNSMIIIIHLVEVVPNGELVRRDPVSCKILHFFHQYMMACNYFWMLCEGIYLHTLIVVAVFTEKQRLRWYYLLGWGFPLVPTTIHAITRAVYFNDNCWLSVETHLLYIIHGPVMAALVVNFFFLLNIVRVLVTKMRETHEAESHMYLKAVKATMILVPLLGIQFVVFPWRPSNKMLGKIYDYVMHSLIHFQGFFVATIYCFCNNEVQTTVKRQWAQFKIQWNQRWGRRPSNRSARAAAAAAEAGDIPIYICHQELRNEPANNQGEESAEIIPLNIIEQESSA
T1 sequence (looked up) 2: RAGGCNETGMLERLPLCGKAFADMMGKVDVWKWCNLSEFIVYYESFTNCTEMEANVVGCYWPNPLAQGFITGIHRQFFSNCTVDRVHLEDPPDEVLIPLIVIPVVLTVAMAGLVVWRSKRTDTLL

B1: N^ε1-[(4S)-4-carboxy-4-(19-carboxynonadecanoylamino)butanoyl]-[His14,Arg17,Pro21,Pro27,His35]-h-amylin (peptide)
peptide: K([γGlu-C20 diacid])CNTATCATQRLAHFLRHSSPNFGAIPSSTNVGSHTY-NH2
modifications: disulfide 2-7; N-terminus assumed
SMILES: CC[C@H](C)[C@H](NC(=O)[C@H](C)NC(=O)CNC(=O)[C@H](Cc1ccccc1)NC(=O)[C@H](CC(N)=O)NC(=O)[C@@H]1CCCN1C(=O)[C@H](CO)NC(=O)[C@H](CO)NC(=O)[C@H](Cc1c[nH]cn1)NC(=O)[C@H](CCCNC(=N)N)NC(=O)[C@H](CC(C)C)NC(=O)[C@H](Cc1ccccc1)NC(=O)[C@H](Cc1c[nH]cn1)NC(=O)[C@H](C)NC(=O)[C@H](CC(C)C)NC(=O)[C@H](CCCNC(=N)N)NC(=O)[C@H](CCC(N)=O)NC(=O)[C@@H](NC(=O)[C@H](C)NC(=O)[C@@H]1CSSC[C@H](NC(=O)[C@@H](N)CCCCNC(=O)CC[C@H](NC(=O)CCCCCCCCCCCCCCCCCCC(=O)O)C(=O)O)C(=O)N[C@@H](CC(N)=O)C(=O)N[C@@H]([C@@H](C)O)C(=O)N[C@@H](C)C(=O)N[C@@H]([C@@H](C)O)C(=O)N1)[C@@H](C)O)C(=O)N1CCC[C@H]1C(=O)N[C@@H](CO)C(=O)N[C@@H](CO)C(=O)N[C@H](C(=O)N[C@@H](CC(N)=O)C(=O)N[C@H](C(=O)NCC(=O)N[C@@H](CO)C(=O)N[C@@H](Cc1c[nH]cn1)C(=O)N[C@H](C(=O)N[C@@H](Cc1ccc(O)cc1)C(N)=O)[C@@H](C)O)C(C)C)[C@@H](C)O
notes: also called 66; compound 66
B2: N^ε1-[(4S)-4-carboxy-4-(19-carboxynonadecanoylamino)butanoyl]-[His14,Arg17,Pro21,Pro27,Pro31]-h-amylin (peptide)
peptide: K([γGlu-C20 diacid])CNTATCATQRLAHFLRHSSPNFGAIPSSTPVGSNTY-NH2
modifications: disulfide 2-7; N-terminus assumed
SMILES: CC[C@H](C)[C@H](NC(=O)[C@H](C)NC(=O)CNC(=O)[C@H](Cc1ccccc1)NC(=O)[C@H](CC(N)=O)NC(=O)[C@@H]1CCCN1C(=O)[C@H](CO)NC(=O)[C@H](CO)NC(=O)[C@H](Cc1c[nH]cn1)NC(=O)[C@H](CCCNC(=N)N)NC(=O)[C@H](CC(C)C)NC(=O)[C@H](Cc1ccccc1)NC(=O)[C@H](Cc1c[nH]cn1)NC(=O)[C@H](C)NC(=O)[C@H](CC(C)C)NC(=O)[C@H](CCCNC(=N)N)NC(=O)[C@H](CCC(N)=O)NC(=O)[C@@H](NC(=O)[C@H](C)NC(=O)[C@@H]1CSSC[C@H](NC(=O)[C@@H](N)CCCCNC(=O)CC[C@H](NC(=O)CCCCCCCCCCCCCCCCCCC(=O)O)C(=O)O)C(=O)N[C@@H](CC(N)=O)C(=O)N[C@@H]([C@@H](C)O)C(=O)N[C@@H](C)C(=O)N[C@@H]([C@@H](C)O)C(=O)N1)[C@@H](C)O)C(=O)N1CCC[C@H]1C(=O)N[C@@H](CO)C(=O)N[C@@H](CO)C(=O)N[C@H](C(=O)N1CCC[C@H]1C(=O)N[C@H](C(=O)NCC(=O)N[C@@H](CO)C(=O)N[C@@H](CC(N)=O)C(=O)N[C@H](C(=O)N[C@@H](Cc1ccc(O)cc1)C(N)=O)[C@@H](C)O)C(C)C)[C@@H](C)O
notes: also called 62; compound 62
B3: N^ε1-[(4S)-4-carboxy-4-(19-carboxynonadecanoylamino)butanoyl]-[His14,Arg17,Pro21,Pro27]-h-amylin (peptide)
peptide: K([γGlu-C20 diacid])CNTATCATQRLAHFLRHSSPNFGAIPSSTNVGSNTY-NH2
modifications: disulfide 2-7; N-terminus assumed
SMILES: CC[C@H](C)[C@H](NC(=O)[C@H](C)NC(=O)CNC(=O)[C@H](Cc1ccccc1)NC(=O)[C@H](CC(N)=O)NC(=O)[C@@H]1CCCN1C(=O)[C@H](CO)NC(=O)[C@H](CO)NC(=O)[C@H](Cc1c[nH]cn1)NC(=O)[C@H](CCCNC(=N)N)NC(=O)[C@H](CC(C)C)NC(=O)[C@H](Cc1ccccc1)NC(=O)[C@H](Cc1c[nH]cn1)NC(=O)[C@H](C)NC(=O)[C@H](CC(C)C)NC(=O)[C@H](CCCNC(=N)N)NC(=O)[C@H](CCC(N)=O)NC(=O)[C@@H](NC(=O)[C@H](C)NC(=O)[C@@H]1CSSC[C@H](NC(=O)[C@@H](N)CCCCNC(=O)CC[C@H](NC(=O)CCCCCCCCCCCCCCCCCCC(=O)O)C(=O)O)C(=O)N[C@@H](CC(N)=O)C(=O)N[C@@H]([C@@H](C)O)C(=O)N[C@@H](C)C(=O)N[C@@H]([C@@H](C)O)C(=O)N1)[C@@H](C)O)C(=O)N1CCC[C@H]1C(=O)N[C@@H](CO)C(=O)N[C@@H](CO)C(=O)N[C@H](C(=O)N[C@@H](CC(N)=O)C(=O)N[C@H](C(=O)NCC(=O)N[C@@H](CO)C(=O)N[C@@H](CC(N)=O)C(=O)N[C@H](C(=O)N[C@@H](Cc1ccc(O)cc1)C(N)=O)[C@@H](C)O)C(C)C)[C@@H](C)O
notes: also called 70; compound 70
B4: N^ε1-[(4S)-4-carboxy-4-[[(4S)-4-carboxy-4-(19-carboxynonadecanoylamino)butanoyl]amino]butanoyl]-[Arg17,Pro21,Pro27,His34]-h-amylin (peptide)
peptide: K([γGlu-γGlu-C20 diacid])CNTATCATQRLANFLRHSSPNFGAIPSSTNVGHNTY-NH2
modifications: disulfide 2-7; N-terminus assumed
SMILES: CC[C@H](C)[C@H](NC(=O)[C@H](C)NC(=O)CNC(=O)[C@H](Cc1ccccc1)NC(=O)[C@H](CC(N)=O)NC(=O)[C@@H]1CCCN1C(=O)[C@H](CO)NC(=O)[C@H](CO)NC(=O)[C@H](Cc1c[nH]cn1)NC(=O)[C@H](CCCNC(=N)N)NC(=O)[C@H](CC(C)C)NC(=O)[C@H](Cc1ccccc1)NC(=O)[C@H](CC(N)=O)NC(=O)[C@H](C)NC(=O)[C@H](CC(C)C)NC(=O)[C@H](CCCNC(=N)N)NC(=O)[C@H](CCC(N)=O)NC(=O)[C@@H](NC(=O)[C@H](C)NC(=O)[C@@H]1CSSC[C@H](NC(=O)[C@@H](N)CCCCNC(=O)CC[C@H](NC(=O)CC[C@H](NC(=O)CCCCCCCCCCCCCCCCCCC(=O)O)C(=O)O)C(=O)O)C(=O)N[C@@H](CC(N)=O)C(=O)N[C@@H]([C@@H](C)O)C(=O)N[C@@H](C)C(=O)N[C@@H]([C@@H](C)O)C(=O)N1)[C@@H](C)O)C(=O)N1CCC[C@H]1C(=O)N[C@@H](CO)C(=O)N[C@@H](CO)C(=O)N[C@H](C(=O)N[C@@H](CC(N)=O)C(=O)N[C@H](C(=O)NCC(=O)N[C@@H](Cc1c[nH]cn1)C(=O)N[C@@H](CC(N)=O)C(=O)N[C@H](C(=O)N[C@@H](Cc1ccc(O)cc1)C(N)=O)[C@@H](C)O)C(C)C)[C@@H](C)O
notes: also called 86; compound 86
B5: N^ε1-[(4S)-4-carboxy-4-[[(4S)-4-carboxy-4-(19-carboxynonadecanoylamino)butanoyl]amino]butanoyl]-[Asp14,Arg17,Pro21,Pro26,Asp35]-h-amylin (peptide)
peptide: K([γGlu-γGlu-C20 diacid])CNTATCATQRLADFLRHSSPNFGAPLSSTNVGSDTY-NH2
modifications: disulfide 2-7; N-terminus assumed
SMILES: CC(C)C[C@H](NC(=O)[C@H](CCCNC(=N)N)NC(=O)[C@H](CCC(N)=O)NC(=O)[C@@H](NC(=O)[C@H](C)NC(=O)[C@@H]1CSSC[C@H](NC(=O)[C@@H](N)CCCCNC(=O)CC[C@H](NC(=O)CC[C@H](NC(=O)CCCCCCCCCCCCCCCCCCC(=O)O)C(=O)O)C(=O)O)C(=O)N[C@@H](CC(N)=O)C(=O)N[C@@H]([C@@H](C)O)C(=O)N[C@@H](C)C(=O)N[C@@H]([C@@H](C)O)C(=O)N1)[C@@H](C)O)C(=O)N[C@@H](C)C(=O)N[C@@H](CC(=O)O)C(=O)N[C@@H](Cc1ccccc1)C(=O)N[C@@H](CC(C)C)C(=O)N[C@@H](CCCNC(=N)N)C(=O)N[C@@H](Cc1c[nH]cn1)C(=O)N[C@@H](CO)C(=O)N[C@@H](CO)C(=O)N1CCC[C@H]1C(=O)N[C@@H](CC(N)=O)C(=O)N[C@@H](Cc1ccccc1)C(=O)NCC(=O)N[C@@H](C)C(=O)N1CCC[C@H]1C(=O)N[C@@H](CC(C)C)C(=O)N[C@@H](CO)C(=O)N[C@@H](CO)C(=O)N[C@H](C(=O)N[C@@H](CC(N)=O)C(=O)N[C@H](C(=O)NCC(=O)N[C@@H](CO)C(=O)N[C@@H](CC(=O)O)C(=O)N[C@H](C(=O)N[C@@H](Cc1ccc(O)cc1)C(N)=O)[C@@H](C)O)C(C)C)[C@@H](C)O
notes: also called compound 1
B6: N^ε1-[(4S)-4-carboxy-4-[[(4S)-4-carboxy-4-(19-carboxynonadecanoylamino)butanoyl]amino]butanoyl]-[Asp14,Arg17,Pro21,Pro27,Arg35]-h-amylin (peptide)
peptide: K([γGlu-γGlu-C20 diacid])CNTATCATQRLADFLRHSSPNFGAIPSSTNVGSRTY-NH2
modifications: disulfide 2-7; N-terminus assumed
SMILES: CC[C@H](C)[C@H](NC(=O)[C@H](C)NC(=O)CNC(=O)[C@H](Cc1ccccc1)NC(=O)[C@H](CC(N)=O)NC(=O)[C@@H]1CCCN1C(=O)[C@H](CO)NC(=O)[C@H](CO)NC(=O)[C@H](Cc1c[nH]cn1)NC(=O)[C@H](CCCNC(=N)N)NC(=O)[C@H](CC(C)C)NC(=O)[C@H](Cc1ccccc1)NC(=O)[C@H](CC(=O)O)NC(=O)[C@H](C)NC(=O)[C@H](CC(C)C)NC(=O)[C@H](CCCNC(=N)N)NC(=O)[C@H](CCC(N)=O)NC(=O)[C@@H](NC(=O)[C@H](C)NC(=O)[C@@H]1CSSC[C@H](NC(=O)[C@@H](N)CCCCNC(=O)CC[C@H](NC(=O)CC[C@H](NC(=O)CCCCCCCCCCCCCCCCCCC(=O)O)C(=O)O)C(=O)O)C(=O)N[C@@H](CC(N)=O)C(=O)N[C@@H]([C@@H](C)O)C(=O)N[C@@H](C)C(=O)N[C@@H]([C@@H](C)O)C(=O)N1)[C@@H](C)O)C(=O)N1CCC[C@H]1C(=O)N[C@@H](CO)C(=O)N[C@@H](CO)C(=O)N[C@H](C(=O)N[C@@H](CC(N)=O)C(=O)N[C@H](C(=O)NCC(=O)N[C@@H](CO)C(=O)N[C@@H](CCCNC(=N)N)C(=O)N[C@H](C(=O)N[C@@H](Cc1ccc(O)cc1)C(N)=O)[C@@H](C)O)C(C)C)[C@@H](C)O
notes: also called 52; compound 52

Numbered stars: 1 amine (or outer) side, 2 acyl side, 3 side chain; on linkers, the order of the positions; unused ones are H or OH. Bridge positions count the residues as written; N and C are the ends. Side chains are listed from the residue outwards. Ends that are not written are not given here. * marks the point of attachment. C20 diacid = O=C(O)CCCCCCCCCCCCCCCCCCC(=O)*; γGlu = O=C(O)[C@H](CCC(=O)[*:2])N[*:1]

The assay deals with T1, human amylin receptor (amylin 3(a) …). The assay can be described thus: SPA displacement of 125I-rat amylin, hAmylin 3(a) receptor membranes. In a few lines: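 SPA beads + BHK amylin 3(a)/CRE-luc membranes, 35 ng/μL final; buffer 50 mM Hepes pH 7.4, 1 mM CaCl2, 5 mM MgCl₂, 0.1% OA, 0.02% Tween20. 120 min, 25° C, shaken; scintillation count. IC₅₀ by one-site binding competition fit, taken as receptor affinity.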
In general terms: In a radioligand displacement assay an active substance lowers the binding of a labelled ligand.
Broadly, the IC50 is the concentration that gives 50% inhibition. As to B1, the IC50 worked out at 396 pM.

B2: the IC50 turned out to be 98 pM.

As to B3, the half-inhibitory concentration (IC50) was found to be 169 pM.

B4: the IC50 is 833 pM.

Take B5: the IC50 was determined as 1180 pM.

B6: the IC50 worked out at 697 pM.
